Test results as given in patent US20140314784A1 (MEDLMMUNE, published 2014).
Residue numbers refer to the chain shown, from its start.

T1: human CXCR3 (human, UniProt P49682 1-368)
T1 construct: whole, on cells
T1 sequence (looked up): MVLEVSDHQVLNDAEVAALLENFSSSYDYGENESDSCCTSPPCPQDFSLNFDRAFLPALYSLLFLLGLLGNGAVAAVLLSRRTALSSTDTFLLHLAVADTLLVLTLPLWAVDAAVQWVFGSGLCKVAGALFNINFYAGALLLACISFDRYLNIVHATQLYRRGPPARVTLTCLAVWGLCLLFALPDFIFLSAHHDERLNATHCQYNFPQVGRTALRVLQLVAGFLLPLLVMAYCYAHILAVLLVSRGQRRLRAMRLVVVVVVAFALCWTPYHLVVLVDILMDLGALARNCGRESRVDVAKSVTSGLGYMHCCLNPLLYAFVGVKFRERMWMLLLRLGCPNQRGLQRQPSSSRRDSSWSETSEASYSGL

T2: CCR4 (human, UniProt P51679 1-360)
T2 construct: whole, on cells
T2 sequence (looked up): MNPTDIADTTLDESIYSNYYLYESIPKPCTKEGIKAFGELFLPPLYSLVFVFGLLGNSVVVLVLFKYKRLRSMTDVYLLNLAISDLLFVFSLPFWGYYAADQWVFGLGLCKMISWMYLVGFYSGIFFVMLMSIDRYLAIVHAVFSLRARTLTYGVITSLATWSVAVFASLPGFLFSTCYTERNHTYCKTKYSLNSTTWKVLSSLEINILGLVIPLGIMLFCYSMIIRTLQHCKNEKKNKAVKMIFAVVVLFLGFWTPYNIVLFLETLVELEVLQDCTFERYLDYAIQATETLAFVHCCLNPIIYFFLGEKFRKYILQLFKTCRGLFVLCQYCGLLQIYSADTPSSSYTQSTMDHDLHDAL

B1: 6C7 IgG1TM (antibody, V domains shown)
VH: QVQLVESGGGVVQPGRSLRLSCAASGFTFSNYVMHWVRQAPGKGLEWVAVIWYDGSNKYYADSVKGRFTISRDNSKNTLSLQMNSLRAEDTAVYYCERGEGYYGSGSRYRGYYYGMDVWGQGTTVTVSS
VL: DIQMTQSPSSLSASVGDRVTITCRASQGIRTDLGWYQQKPGKAPKRLIYAASSLQSGVPSRFSGSGSGTEFTLTISSLQPEDFATYYCLQHNSYPRTFGQGTKVEIKR
notes: 6C7 variable domains on a variant IgG1 Fc (IgG1 TM); also called 6C7-TM; Anti-CXCR4 IgG1 TM
B2: 4C1 (antibody, V domains shown)
VH: QVQLVESGGGVVQPGRSLRLSCAASGFTFSSYGMHWVRQAPGKGLEWVAVISYDGSNKYYADSVKGRFTISRDNSKNTLYLQMNSLRAEDTAVYYCTRGGLAARRNYYYSYGMDVWGQGTTVTVSS
VL: DIQMTQSPSSLSASVGDRVTITCRASQDIRNDLGWYQQKPGKAPKRLIYAASSLQSGVPSRFSGSGSGTQFTLTISSLQPEDFATYYCLQHNSYPLTFGGGTKVQIK
notes: Fully human monoclonal antibody from XenoMouse hybridoma (strains XMG2 IgG2 or XMG4 IgG4, kappa/lambda); Tested as hybridoma supernatant or purified antibody; also called mAb 4C1; Mab4C1
B3: 2A4 (antibody, V domains shown)
VH: B2 VH with M113T
VL: B2 VL with K45T
notes: Fully human monoclonal antibody from XenoMouse hybridoma; also called mAb 2A4; Mab2A4
B4: 5C9 (antibody, V domains shown)
VH: QVQLVESGGGVVQPGRSLRLSCAASGFTFSSYGLHWVRQSPGKGLEWVAVISYDGSKKYYADSVKGRFSISRDNSKNTLYLQMNSLRAEDTAVYYCARDRPSRYSSCMDVWGQGTTVTVSS
VL: QSALTQPASVSGSPGQSITISCTGTSSDVGSNNFVSWYQQHPGKAPKLMIYEVSKRPSGVSNRFSGSKSGNTASLTISGLQAEDEADYYCCSYAGSNTLVFGGGTKLTVL
notes: Fully human monoclonal antibody from XenoMouse hybridoma (lambda light chain)
B5: 5E1 (antibody, V domains shown)
VH: EVQLLESGGGLVQPGGSLRLSCAASGFTFSSFAMNWVRQAPGKGLEWVSAISGSGGNIYYADSVRGRFTISRDNSKNTLYLQMNSLRAEDTAVYYCAKVDRNLGYYHGMDVWGQGTTVTVSS
VL: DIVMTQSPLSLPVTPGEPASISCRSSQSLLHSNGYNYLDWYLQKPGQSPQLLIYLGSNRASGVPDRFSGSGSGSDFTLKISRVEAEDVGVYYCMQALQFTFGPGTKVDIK
notes: Fully human monoclonal antibody from XenoMouse hybridoma
B6: 6C7 (antibody, V domains shown)
VH: B1 VH
VL: B2 VL with D28G, N31T, Q70E, L96R, G100Q, Q105E
notes: Fully human monoclonal antibody from XenoMouse hybridoma; also called antibody 6C7; mAb 6C7
B7: 7C8 (antibody, V domains shown)
VH: QVQLVESGGGVVQPGRSLRLSCAASGFTFSSYGMHWVRQAPGKGLEWVAVIWYDGTYKYYADSVRGRFTISRDNSKNTLYLQMNSLRAEDTAVYYCARGPLLRYFDWLSDYWGQGTLVTVSS
VL: B2 VL with D28G, S52T, Q70E, S93N, L96R, Q105E
notes: as for B5

The binders below were run against T3, cynomolgus monkey CXCR4 (cynomolgus monkey, UniProt Q28474 1-352) (assay: FACS binding titration on HSC-F cells (cyno CXCR4), Kinexa model fit).
T3 construct: whole, on cells; On transiently transfected HEK293T cells or endogenous on the cynomolgus T-cell line HSC-F; also called Cynomolgus CXCR4
T3 sequence (Q28474 whole entry): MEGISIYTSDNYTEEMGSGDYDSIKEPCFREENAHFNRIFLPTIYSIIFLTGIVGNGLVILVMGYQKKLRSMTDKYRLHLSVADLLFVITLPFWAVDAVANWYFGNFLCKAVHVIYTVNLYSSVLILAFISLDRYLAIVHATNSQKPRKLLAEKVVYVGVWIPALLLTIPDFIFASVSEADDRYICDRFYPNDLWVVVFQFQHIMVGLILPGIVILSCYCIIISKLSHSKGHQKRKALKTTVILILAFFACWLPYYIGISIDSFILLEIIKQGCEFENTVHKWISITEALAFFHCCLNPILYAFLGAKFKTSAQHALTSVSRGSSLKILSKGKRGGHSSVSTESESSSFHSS

| Binder | Kd |
| --- | --- |
| B1 | 0.221 nM |

These binders were tested against T4, human CXCR4 (human, UniProt P61073 1-352) (assay: FACS, hybridoma supernatant pre-incubated with human CXCR4 transfected HEK293T cells, competitor Alexa-647 SDF-1).
T4 construct: also called CXCR4 receptor; C-X-C chemokine receptor type 4
T4 sequence (P61073 whole entry): as the sequence (Q28474 whole entry) above, with I24M, H35N, R38K, K146R, S176N counted along it

| Binder | % Inhibition of SDF-1 binding |
| --- | --- |
| B2 | 35% |
| B3 | 42% |
| B4 | -1% |
| B5 | 1% |
| B6 | 88% |
| B7 | 75% |

Each binder was assayed against T4, human CXCR4 (assay: FACS binding under antigen limiting conditions on Jurkat cells, Kinexa software fit).
Method: (§1) FACS binding under antigen limiting conditions was utilized to estimate the affinities of antibodies to the CXCR4 receptor. Jurkat cells were washed in RPMI1640 medium and plated at 50,000 cells per well in duplicate for incubation with 4-fold dilution series of antibody in duplicate, ranging between 150,000 and 0.143 pM. Incubation was carried out at 4° C. overnight, followed by wash step (3 times in PBS) and staining with Goat anti-human Fc−Cy5 secondary antibody+5 μg/mL 7-Amino-Actinomycin (7AAD) for 40 minutes at 4° C. Samples were analyzed on a FACSCaliber following another round of 3 washes in PBS. […] The negative geo mean was entered into Kinexa analysis software as an estimate of antibody “depletion” under limited antigen conditions, and the equilibrium dissociation constant (KD) was estimated from the curve fit.

| Binder | Kd |
| --- | --- |
| B2 | 2.2 nM |
| B3 | 0.82 nM |
| B5 | 0.045 nM |
| B7 | 0.363 nM |

The binders below were run against T4, human CXCR4 (assay: FMAT, hybridoma supernatant on HEK293T cells transiently overexpressing full-length human CXCR4).
Method: (§2) Supernatants collected from harvested cells were tested to assess the ability of the secreted antibodies to bind to HEK293T cells transiently overexpressing either full-length human, murine or cynomolgus monkey CXCR4. […] Cells diluted in PBS containing 2% FBS were seeded at a density of 3000 expressing and 15000 mock transfected cells per well in 384 well plates (Corning Costar, catalog #3712). Immediately after plating, 15 or 20 μl/well of hybridoma supernatants and 10 μl/well of secondary antibody (Goat anti-human IgG Fc Cy5, final concentration 750 ng/ml) were added and plates incubated for 3 hours at room temperature prior to reading the fluorescence on the FMAT 8200 instrument (Applied Biosystems). The product of number of positive events and fluorescence intensity was used as a measure of binding strength.

| Binder | Count | FL1 | FL1 x count |
| --- | --- | --- | --- |
| B2 | 183 | 8330 | 1.52e+06 |
| B3 | 89 | 8370 | 745000 |
| B4 | 233 | 8800 | 2.05e+06 |
| B5 | 213 | 7750 | 1.65e+06 |
| B6 | 199 | 7990 | 1.59e+06 |
| B7 | 184 | 7940 | 1.46e+06 |

The binders below were run against T4, human CXCR4 (assay: FACS binding under antigen limiting conditions on Jurkat cells, Kinexa software fit; experiment 1).
Method: as §1

| Binder | Kd |
| --- | --- |
| B6 | 0.242 nM |

These binders were tested against T4, human CXCR4 (assay: cell-based or functional assay).

| Binder | Jurkat chemotaxis inhibition IC50 pM | Jurkat chemotaxis inhibition IC50 |
| --- | --- | --- |
| B2 | 1220 pM | 0.182 µg/mL |
| B3 | 383 pM | 0.0574 µg/mL |
| B4 | 28200 pM | 4.22 µg/mL |
| B5 | 14200 pM | 2.12 µg/mL |
| B6 | 74.7 pM | 0.0112 µg/mL |
| B7 | 1570 pM | 0.236 µg/mL |

Each binder was assayed against T4, human CXCR4 (assay: FACS competition on formalin-fixed Namalwa cells: 10 nM biotinylated SDF-1 bound first, then displaced by 6C7; streptavidin-PE readout).

| Binder | IC50 | IC50 (read off the curve) |
| --- | --- | --- |
| B6 | 0.123 nM | ~0.1 nM |

What follows are binders tested against T5, mouse CXCR4 (mouse, UniProt P70658 1-359) (assay: FMAT, hybridoma supernatant on HEK293T cells transiently overexpressing mouse CXCR4).
T5 construct: Full-length murine CXCR4 on transiently transfected HEK293T cells; also native on mouse lymphocytes and the EL4 line; also called murine CXCR4
Method: as §2

T5 sequence (P70658 whole entry): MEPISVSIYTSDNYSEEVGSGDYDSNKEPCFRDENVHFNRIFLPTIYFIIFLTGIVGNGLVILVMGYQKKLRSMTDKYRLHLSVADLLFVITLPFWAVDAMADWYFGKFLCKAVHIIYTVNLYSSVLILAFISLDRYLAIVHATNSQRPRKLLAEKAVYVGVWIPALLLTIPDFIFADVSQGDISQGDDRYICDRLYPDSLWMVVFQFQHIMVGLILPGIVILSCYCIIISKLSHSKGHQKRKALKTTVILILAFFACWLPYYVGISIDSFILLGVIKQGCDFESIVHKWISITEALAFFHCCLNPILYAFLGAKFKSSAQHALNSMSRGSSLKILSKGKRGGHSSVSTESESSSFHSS

| Binder | binding result |
| --- | --- |
| B4 | no binding |

What follows are binders tested against T4, human CXCR4 (assay: FACS binding under antigen limiting conditions on Jurkat cells, Kinexa software fit; experiment 2).
Method: as §1

| Binder | Kd |
| --- | --- |
| B6 | 0.768 nM |

Each binder was assayed against T4, human CXCR4 (assay: FACS binding titration on Namalwa cells (human CXCR4), Kinexa model fit).

| Binder | Kd |
| --- | --- |
| B1 | 0.768 nM |

These binders were tested against T1, human CXCR3 (assay: FACS on human CXCR3 transfected HEK293 cells, parental cells as control).
Method: (§3) CXCR4 is a GPCR, with few close homologues in the family of human GPCRs. Among these are CXCR3 and CCR4. […] The samples were analyzed on a FACS Caliber cytometer.

| Binder | binding result |
| --- | --- |
| B2 | no binding (tested: 10 and 100 ug/ml) |
| B3 | no binding (tested: 10 and 100 ug/ml) |
| B6 | no binding (tested: 10 and 100 ug/ml) |
| B7 | no binding (tested: 10 and 100 ug/ml) |

These binders were tested against T2, CCR4 (assay: FACS on CCR4 transfected CHO cells, parental cells as control).
Method: as §3

| Binder | binding result |
| --- | --- |
| B2 | no binding (tested: 10 and 100 ug/ml) |
| B3 | no binding (tested: 10 and 100 ug/ml) |
| B6 | no binding (tested: 10 and 100 ug/ml) |
| B7 | no binding (tested: 10 and 100 ug/ml) |

What follows are binders tested against T3, cynomolgus monkey CXCR4 (assay: FMAT, hybridoma supernatant on HEK293T cells transiently overexpressing full-length cynomolgus CXCR4).
Method: as §2

| Binder | Count | FL1 | FL1 x count |
| --- | --- | --- | --- |
| B2 | 46 | 6360 | 293000 |
| B3 | 89 | 6740 | 600000 |
| B4 | 106 | 7320 | 776000 |
| B5 | 130 | 12900 | 1.68e+06 |
| B6 | 125 | 3470 | 434000 |
| B7 | 137 | 4680 | 642000 |

Molecular target: T4, human CXCR4
Assay: cell-based or functional assay
Remark: another data set of the same source

| Binder | % Inhibition 1 hr (Jurkat chemotaxis) | % Inhibition 24 hr (Jurkat chemotaxis) |
| --- | --- | --- |
| B2 | 81.3% | -27% |
| B3 | 98% | 76% |
| B4 | 74% | 44% |
| B5 | 70% | -20% |
| B6 | 99.6% | 95% |
| B7 | 48.3% | -34% |

Molecular target: T4, human CXCR4
Assay: cell-based or functional assay
Remark: another data set of the same source

| Binder | Inhibition of pMAPK Signaling IC50 (nM), Jurkat, ELISA |
| --- | --- |
| B1 | 3.1 nM |

Each binder was assayed against T3, cynomolgus monkey CXCR4 (assay: Kinexa-based on-cell affinity (FACS) on cynomolgus T-cell line HSC-F).

| Binder | Kd |
| --- | --- |
| B6 | 0.221 nM |

Molecular target: T4, human CXCR4
Assay: cell-based or functional assay
Remark: another data set of the same source

| Binder | Jurkat chemotaxis inhibition IC50 |
| --- | --- |
| B6 | 0.068 nM |
| B1 | 0.193 nM |

What follows are binders tested against T5, mouse CXCR4 (assay: FMAT, hybridoma supernatant on HEK293T cells transiently overexpressing full-length mouse CXCR4).
Method: as §2

| Binder | Count | FL1 | FL1 x count |
| --- | --- | --- | --- |
| B2 | 5 | 1490 | 7440 |
| B3 | 3 | 954 | 2860 |
| B4 | 72 | 4780 | 344000 |
| B7 | 9 | 2400 | 21600 |
